Experimental data as given in EP4714974A1 (Shanghai Qilu Pharmaceutical Research and Development …, dated 2026).

T1: cynomolgus monkey CD3 (purchased from Acro, Cat. No. CDD-C52W4) (cynomolgus monkey, UniProt Q95LI5 22-117)
T1 construct: Bought reagent
T1 sequence (looked up): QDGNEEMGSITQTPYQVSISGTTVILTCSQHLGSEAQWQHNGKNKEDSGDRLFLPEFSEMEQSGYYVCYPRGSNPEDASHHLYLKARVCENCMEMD

T2: cynomolgus monkey GPRC5D (cynomolgus monkey)
T2 chain: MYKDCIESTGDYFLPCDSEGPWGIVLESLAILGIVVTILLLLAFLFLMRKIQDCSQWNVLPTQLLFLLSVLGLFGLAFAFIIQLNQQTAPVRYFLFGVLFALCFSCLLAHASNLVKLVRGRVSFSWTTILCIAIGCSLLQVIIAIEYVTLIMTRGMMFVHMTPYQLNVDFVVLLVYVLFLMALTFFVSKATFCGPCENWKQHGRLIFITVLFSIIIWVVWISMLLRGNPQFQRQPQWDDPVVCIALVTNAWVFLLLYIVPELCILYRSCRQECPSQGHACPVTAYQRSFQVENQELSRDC

B1: Bispecific antibody 1 (bispecific antibody, human IgG1, kappa, L234A L235A)
heavy 1: not shown
heavy 2: QVQLVQSGAEVKKPGASVKVSCKASGYTFTSYIIHWVRQAPGQGLEWIGYINPYNDGTKYNEKFKGRVTMTSDTSTSTVYMELSSLRSEDTAVYYCARGGIRAFMNYWGQGTLVTVSSASTKGPSVFPLAPSSKSTSGGTAALGCLVKDYFPEPVTVSWNSGALTSGVHTFPAVLQSSGLYSLSSVVTVPSSSLGTQTYICNVNHKPSNTKVDKKVEPKSCDKTHTCPPCPAPEAAGGPSVFLFPPKPKDTLMISRTPEVTCVVVDVSHEDPEVKFNWYVDGVEVHNAKTKPREEQYNSTYRVVSVLTVLHQDWLNGKEYKCKVSNKALPAPIEKTISKAKGQPREPQVCTLPPSRDELTKNQVSLSCAVKGFYPSDIAVEWESNGQPENNYKTTPPVLDSDGSFFLVSKLTVDKSRWQQGNVFSCSVMHEALHNRYTQKSLSLSPGK
light: DIQMTQSPSSLSASVGDRVTITCKASQDVGTAVAWYQQKPGKAPKLLIYWASTRHTGVPSRFSGSGSGTDFTLTISSLQPEDFATYYCQHYISWTFGQGTKVEIKRTVAAPSVFIFPPSDEQLKSGTASVVCLLNNFYPREAKVQWKVDNALQSGNSQESVTEQDSKDSTYSLSSTLTLSKADYEKHKVYACEVTHQGLSSPVTKSFNRGEC
notes: 2+1 format: two GPRC5D Fabs and one CD3 scFv placed between a Fab and the Fc; also called anti-CD3-GPRC5D bispecific antibody 1; anti-GPRC5D/CD3 bispecific antibody
B2: Bispecific antibody 2 (bispecific antibody)
heavy: not shown
light: B1 light
chain: DKTHTCPPCPAPEAAGGPSVFLFPPKPKDTLMISRTPEVTCVVVDVSHEDPEVKFNWYVDGVEVHNAKTKPREEQYNSTYRVVSVLTVLHQDWLNGKEYKCKVSNKALPAPIEKTISKAKGQPREPQVCTLPPSRDELTKNQVSLSCAVKGFYPSDIAVEWESNGQPENNYKTTPPVLDSDGSFFLVSKLTVDKSRWQQGNVFSCSVMHEALHNRYTQKSLSLSPGK
notes: 1+1 format: one GPRC5D Fab, one CD3 scFv between Fab and Fc, Fc-only hole chain; also called anti-CD3-GPRC5D bispecific antibody 2; anti-GPRC5D/CD3 bispecific antibody
B3: 18CH-16 (chimeric mouse hybridoma-derived anti-GPRC5D antibody) (antibody, V domains shown)
VH: EVQLQQSGPELVKPGASVKMSCKASGYTFTSYIIHWVKQKPGQGLEWIGYINPYNDGTKYNEKFKGKATLTSDRSSSTAYMEVSSLTSEDSAVYYCARGGIRAFMNYWGQGTSVTVSS
VL: DIVMTQSHKFMSTSVGDRVSITCKASQDVGTAVAWYQQKPGQSPKLLIYWASTRHTGVPDRFTGSGSGTDFTLSISNVQSEDLADYFCQHYISWTFGGGTNLEIK
notes: also called parent antibody
B4: 18CH16H2L1 (humanized mouse hybridoma-derived anti-GPRC5D antibody) (antibody, V domains shown)
VH: QVQLVQSGAEVKKPGASVKVSCKASGYTFTSYIIHWVRQAPGQGLEWIGYINPYNDGTKYNEKFKGRVTMTSDTSTSTVYMELSSLRSEDTAVYYCARGGIRAFMNYWGQGTLVTVSS
VL: DIQMTQSPSSLSASVGDRVTITCKASQDVGTAVAWYQQKPGKAPKLLIYWASTRHTGVPSRFSGSGSGTDFTLTISSLQPEDFATYYCQHYISWTFGQGTKVEIK
notes: also called humanized clone 18CH16 antibody

What was measured:
[1] = target: T3, human CD3 on Jurkat cells (human, UniProt P07766 23-207); test: flow cytometry (FACS) on Jurkat cells expressing hCD3
T3 construct: whole, on cells; CD3 complex on cells; also called hCD3; Jurkat cell strain

human GPRC5D [2] = target: T4, human GPRC5D (human, UniProt Q9NZD1 1-345); test: flow cytometry (FACS) on RPMI8226 cells expressing hGPRC5D
T4 construct: whole, on cells; also called hGPRC5D; G-protein coupled receptor family C group 5 member D

human GPRC5D [3] = target: T4, human GPRC5D; test: flow cytometry (FACS) on NCI-H929 cells expressing hGPRC5D
human GPRC5D [4] = target: T4, human GPRC5D; test: cell-based or functional assay
[5] = target: T1, cynomolgus monkey CD3 (purchased from …); test: SPR (Biacore 8K), CD3 immobilised on CM5 chip, bispecific antibody as analyte, 1:1 Langmuir fit
[6] = target: T5, human CD3 (purchased from Acro, Cat. No. CDD-H52W1) (human, UniProt P07766 23-126); test: as above
T5 construct: Bought reagent; also called human CD3 protein

human GPRC5A = target: T6, human GPRC5A (human, UniProt Q8NFJ5 1-357); test: flow cytometry on human GPRC5A-CHOK1 cells
T6 construct: whole, on cells; also called human GPRC5A-CHOK1 cell line

human GPRC5D [7] = target: T4, human GPRC5D; test: flow cytometry on human GPRC5D-CHOK1 cells
cynomolgus monkey GPRC5D = target: T2, cynomolgus monkey GPRC5D; test: flow cytometry on cynomolgus monkey GPRC5D-CHOK1 cells
human GPRC5D [8] = target: T4, human GPRC5D; test: flow cytometry on human GPRC5D-CHOK1 cells; remark: listed apart in the source
human GPRC5D [9] = target: T4, human GPRC5D; test: flow cytometry on NCI-H929 cells

T4 sequence (Q9NZD1 whole entry): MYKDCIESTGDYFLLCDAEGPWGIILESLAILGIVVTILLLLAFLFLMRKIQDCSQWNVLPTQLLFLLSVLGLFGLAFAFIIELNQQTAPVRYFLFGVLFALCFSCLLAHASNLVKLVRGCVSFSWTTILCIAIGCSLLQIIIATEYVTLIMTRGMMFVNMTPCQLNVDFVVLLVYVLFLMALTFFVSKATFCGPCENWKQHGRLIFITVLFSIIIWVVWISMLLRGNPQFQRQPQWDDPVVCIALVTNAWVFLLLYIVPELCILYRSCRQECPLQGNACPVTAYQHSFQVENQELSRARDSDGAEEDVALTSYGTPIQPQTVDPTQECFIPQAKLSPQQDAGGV
T5 sequence (P07766 23-126): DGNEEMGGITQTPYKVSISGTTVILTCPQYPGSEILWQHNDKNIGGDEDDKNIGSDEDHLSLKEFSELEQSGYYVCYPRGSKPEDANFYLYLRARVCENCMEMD
T3 sequence (P07766 23-207): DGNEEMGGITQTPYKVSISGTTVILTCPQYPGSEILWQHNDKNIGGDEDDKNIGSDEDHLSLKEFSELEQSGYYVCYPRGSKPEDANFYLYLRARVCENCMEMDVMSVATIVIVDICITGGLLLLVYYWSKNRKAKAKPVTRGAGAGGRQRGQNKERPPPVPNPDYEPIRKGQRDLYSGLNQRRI
T6 sequence (Q8NFJ5 whole entry): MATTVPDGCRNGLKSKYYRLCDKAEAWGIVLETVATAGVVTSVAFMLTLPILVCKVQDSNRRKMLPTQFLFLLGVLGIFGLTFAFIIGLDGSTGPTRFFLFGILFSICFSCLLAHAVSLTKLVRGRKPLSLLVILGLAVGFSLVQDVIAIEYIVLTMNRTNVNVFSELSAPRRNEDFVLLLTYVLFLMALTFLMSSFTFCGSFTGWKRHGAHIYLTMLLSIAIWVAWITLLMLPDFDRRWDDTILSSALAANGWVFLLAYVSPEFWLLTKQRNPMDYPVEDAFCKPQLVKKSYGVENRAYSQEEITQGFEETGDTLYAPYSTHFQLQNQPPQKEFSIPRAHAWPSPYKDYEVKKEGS

Binder	EC50 [1] [nM]	EC50 (human GPRC5D [2]) [nM]	EC50 (human GPRC5D [3]) [nM]	TDCC EC50(nM), NCI-H929 cell strain (human GPRC5D [4]) [nM]	TDCC EC50(nM), RPMI8226 cell strain (human GPRC5D [4]) [nM]	Kd [5] [nM]	koff [5] [s⁻¹]	kon [5] [M⁻¹ s⁻¹]	Kd [6] [nM]	koff [6] [s⁻¹]	kon [6] [M⁻¹ s⁻¹]	binding result (human GPRC5A)	EC50 (human GPRC5D [7]) [nM]	EC50 (cynomolgus monkey GPRC5D) [nM]	EC50 (human GPRC5D [8]) [nM]	EC50 (human GPRC5D [9]) [nM]
B1	22.1	7.48	1.07	0.001	0.01	16.8	0.00292	174000	20	0.00226	113000	–	–	–	–	–
B2	12.9	22.9	5.19	0.017	0.08	18.9	0.00279	147000	18.1	0.00214	118000	–	–	–	–	–
B3	–	–	–	–	–	–	–	–	–	–	–	no binding (tested: 100 nM (initial concentration))	3.89	4.39	–	–
B4	–	–	–	–	–	–	–	–	–	–	–	–	–	–	0.51	0.3
